According to patent publication EP0662093B1:

Experiments:
[1] = biological target: peptide aa 322-336 of HIV-1MN gp120 (HIV-1 strain MN); assay: ELISA on coated peptide (250 ng/well); 500ng MIgG
[2] = biological target: peptide aa 302-316 of HIV-1MN gp120 (HIV-1 strain MN); assay: ELISA on coated peptide (250 ng/well); 500ng MIgG
[3] = biological target: peptide aa 312-326 of HIV-1MN gp120 (HIV-1 strain MN); assay: ELISA on coated peptide (250 ng/well); 500ng MIgG
[4] = biological target: peptide aa 322-336 of HIV-1MN gp120 (HIV-1 strain MN); assay: ELISA on coated peptide (250 ng/well); 4.75ng antibody
[5] = biological target: peptide aa 302-316 of HIV-1MN gp120 (HIV-1 strain MN); assay: as above
[6] = biological target: peptide aa 312-326 of HIV-1MN gp120 (HIV-1 strain MN); assay: as above
[7] = biological target: native HIV-1MN gp120 (HIV-1 strain MN) (UniProt P05877); assay: radioimmunoassay of hybridoma supernatant on HIV-1MN-infected against uninfected H9 cells
[8] = biological target: native HIV-1MN gp120 (HIV-1 strain MN) (UniProt P05877); assay: cell-based or functional assay
[9] = biological target: HIV-1 RF gp120 (HIV-1 strain RF) (UniProt P04579); assay: cell-based or functional assay
Sequence of UniProt P04579 (P04579 32-519 limits assumed): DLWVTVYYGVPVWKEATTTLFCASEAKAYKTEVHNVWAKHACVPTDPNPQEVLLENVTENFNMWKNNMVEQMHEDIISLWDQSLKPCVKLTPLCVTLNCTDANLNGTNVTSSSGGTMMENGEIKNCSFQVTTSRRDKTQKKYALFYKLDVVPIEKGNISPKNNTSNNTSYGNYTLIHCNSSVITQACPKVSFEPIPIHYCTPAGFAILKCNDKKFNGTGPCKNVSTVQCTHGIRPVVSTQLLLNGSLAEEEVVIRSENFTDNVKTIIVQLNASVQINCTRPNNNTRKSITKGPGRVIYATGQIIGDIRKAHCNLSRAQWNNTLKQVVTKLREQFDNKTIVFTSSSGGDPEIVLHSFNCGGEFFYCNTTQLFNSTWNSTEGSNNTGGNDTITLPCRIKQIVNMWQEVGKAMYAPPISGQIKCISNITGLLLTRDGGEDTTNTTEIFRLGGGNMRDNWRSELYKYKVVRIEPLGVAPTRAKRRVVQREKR

[10] = biological target: native HIV-1IIIB gp120 (HIV-1 strain IIIB) (UniProt P04578); assay: cell-based or functional assay
[11] = biological target: native HIV-1MN gp120 (HIV-1 strain MN) (UniProt P05877); assay: ELISA of hybridoma supernatant on membranes of HIV-1MN-infected against uninfected H9 cells
[12] = biological target: peptide aa 322-336 of HIV-1MN gp120 (HIV-1 strain MN); assay: ELISA on coated peptide (250 ng/well); 19.0ng antibody
[13] = biological target: peptide aa 302-316 of HIV-1MN gp120 (HIV-1 strain MN); assay: as above
[14] = biological target: peptide aa 312-326 of HIV-1MN gp120 (HIV-1 strain MN); assay: as above
[15] = biological target: peptide aa 322-336 of HIV-1MN gp120 (HIV-1 strain MN); assay: ELISA on coated peptide (250 ng/well); 9.50ng antibody
[16] = biological target: peptide aa 302-316 of HIV-1MN gp120 (HIV-1 strain MN); assay: as above
[17] = biological target: peptide aa 312-326 of HIV-1MN gp120 (HIV-1 strain MN); assay: as above

Work on mouse IgG (antibody) yielded an Optical density at 650nm [1] of 0.042 OD 650nm, an Optical density at 650nm [2] of 0.049 OD 650nm and an Optical density at 650nm [3] of 0.043 OD 650nm.
monoclonal antibody NM-01 was tested, and the Optical density at 650nm [4] was 0.03 OD 650nm, the Optical density at 650nm [5] was 0.024 OD 650nm and the Optical density at 650nm [6] was 0.781 OD 650nm. The Ratio cpm inf/cpm uninf (RIA) [7] was 9.81, the 50% inhibition of viral infectivity (ID50), live MN virus, RT assay [8] was < 1 µg/mL and the 50% inhibition of viral infectivity (ID50), live MN virus, RT assay (run with F58/H3 and P4/D10) [8] was < 1 µg/mL. It also gave an ID50, inhibition of syncytium formation by MN-infected H9 cells with C8166 cells [8] of 2 µg/mL, an ID50, neutralization of live MN isolate, MT-2 assay [8] of 2 µg/mL and a percent inhibition of syncytium formation by MN-infected cells at 25 µg antibody [8] of 85%. The ID50, inhibition of live RF virus, RT assay [9] was 0.05 µg/mL, the ID50, inhibition of syncytium formation by RF-infected cells [9] was 4 µg/mL and the percent inhibition of syncytium formation by RF-infected cells at 25 µg antibody [9] was 59%. The ID50, inhibition of syncytium formation by IIIB-infected H9 cells with C8166 cells [10] was 3 µg/mL, the ID50, neutralization of live IIIB isolate, MT-2 assay [10] was 0.1 µg/mL and the ID50, neutralization of live IIIB virus, RT assay [10] was 0.1 µg/mL. For the same substance, the ID50, neutralization of live IIIB virus, RT assay (run with F58/H3 and P4/D10) [10] was 0.1 µg/mL, the percent inhibition of syncytium formation by IIIB-infected cells at 25 µg antibody [10] was 85% and the ratio infected/uninfected (ELISA, Run 1) [11] was 5.76. The Optical density at 650nm [12] was 0.03 OD 650nm, the Optical density at 650nm [13] was 0.024 OD 650nm and the Optical density at 650nm [14] was 1.14 OD 650nm. The Optical density at 650nm [15] was 0.028 OD 650nm, the Optical density at 650nm [16] was 0.024 OD 650nm and the Optical density at 650nm [17] was 0.827 OD 650nm.
